In patent US20240261333A1, “NOVEL TARGETS FOR ENHANCING ANTI-TUMOR IMMUNITY” (THE BROAD INSTITUTE, INC., priority 2021, published 2024):

How the values were obtained:
DNAJA3 (human) = DNAJA3 (human) (UniProt Q96EY1); experiment: IgG control IP from lysate of N-FLAG B3GNT2 cells, mass spectrometry
RPL34 (human) = RPL34 (human) (UniProt P49207); experiment: as above
EEF2 (human) = EEF2 (human) (UniProt P13639); experiment: as above
SFXN3 (human) = SFXN3 (human) (UniProt Q9BWM7); experiment: as above
STAU1 (human) = STAU1 (human) (UniProt O95793); experiment: as above
RPS6 (human) = RPS6 (human) (UniProt P62753); experiment: as above
FBXO6 (human) = FBXO6 (human) (UniProt Q9NRD1); experiment: as above
Chain of FBXO6 (human) (Q9NRD1 whole entry): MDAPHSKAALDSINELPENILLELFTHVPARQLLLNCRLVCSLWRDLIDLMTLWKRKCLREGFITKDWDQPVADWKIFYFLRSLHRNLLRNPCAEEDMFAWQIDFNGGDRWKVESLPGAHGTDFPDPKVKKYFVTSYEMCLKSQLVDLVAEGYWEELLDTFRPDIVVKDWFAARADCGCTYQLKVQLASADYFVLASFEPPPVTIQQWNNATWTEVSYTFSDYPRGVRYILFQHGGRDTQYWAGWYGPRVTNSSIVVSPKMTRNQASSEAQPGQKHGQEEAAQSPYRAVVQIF

RPL15 (human) = RPL15 (human) (UniProt P61313); experiment: as above
KPNB1 (human) = KPNB1 (human) (UniProt Q14974); experiment: as above
Chain of KPNB1 (human) (Q14974 whole entry): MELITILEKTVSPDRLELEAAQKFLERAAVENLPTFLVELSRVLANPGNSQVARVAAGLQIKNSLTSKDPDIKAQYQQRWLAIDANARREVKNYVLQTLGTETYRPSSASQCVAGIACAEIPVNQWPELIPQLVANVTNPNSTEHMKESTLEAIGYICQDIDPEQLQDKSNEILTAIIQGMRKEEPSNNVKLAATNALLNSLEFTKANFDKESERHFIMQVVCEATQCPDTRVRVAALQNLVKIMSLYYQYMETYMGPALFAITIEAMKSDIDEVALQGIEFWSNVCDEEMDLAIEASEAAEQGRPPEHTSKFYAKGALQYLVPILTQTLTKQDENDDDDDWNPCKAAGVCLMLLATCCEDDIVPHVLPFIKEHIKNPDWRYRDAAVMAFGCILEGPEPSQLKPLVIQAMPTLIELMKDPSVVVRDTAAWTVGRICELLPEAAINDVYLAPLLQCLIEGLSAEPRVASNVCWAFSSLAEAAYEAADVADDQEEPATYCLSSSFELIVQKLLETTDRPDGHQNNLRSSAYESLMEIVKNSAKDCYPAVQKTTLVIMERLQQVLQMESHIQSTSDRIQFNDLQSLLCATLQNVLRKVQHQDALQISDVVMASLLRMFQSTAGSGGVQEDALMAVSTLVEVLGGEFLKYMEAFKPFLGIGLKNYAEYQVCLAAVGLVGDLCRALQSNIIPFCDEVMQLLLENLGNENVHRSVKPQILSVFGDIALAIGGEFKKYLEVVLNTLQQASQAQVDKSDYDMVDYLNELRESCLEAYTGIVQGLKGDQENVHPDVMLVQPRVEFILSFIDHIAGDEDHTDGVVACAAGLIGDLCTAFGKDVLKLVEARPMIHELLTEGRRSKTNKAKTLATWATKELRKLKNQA

ABCD1 (human) = ABCD1 (human) (UniProt P33897); experiment: as above
Chain of ABCD1 (human) (P33897 whole entry): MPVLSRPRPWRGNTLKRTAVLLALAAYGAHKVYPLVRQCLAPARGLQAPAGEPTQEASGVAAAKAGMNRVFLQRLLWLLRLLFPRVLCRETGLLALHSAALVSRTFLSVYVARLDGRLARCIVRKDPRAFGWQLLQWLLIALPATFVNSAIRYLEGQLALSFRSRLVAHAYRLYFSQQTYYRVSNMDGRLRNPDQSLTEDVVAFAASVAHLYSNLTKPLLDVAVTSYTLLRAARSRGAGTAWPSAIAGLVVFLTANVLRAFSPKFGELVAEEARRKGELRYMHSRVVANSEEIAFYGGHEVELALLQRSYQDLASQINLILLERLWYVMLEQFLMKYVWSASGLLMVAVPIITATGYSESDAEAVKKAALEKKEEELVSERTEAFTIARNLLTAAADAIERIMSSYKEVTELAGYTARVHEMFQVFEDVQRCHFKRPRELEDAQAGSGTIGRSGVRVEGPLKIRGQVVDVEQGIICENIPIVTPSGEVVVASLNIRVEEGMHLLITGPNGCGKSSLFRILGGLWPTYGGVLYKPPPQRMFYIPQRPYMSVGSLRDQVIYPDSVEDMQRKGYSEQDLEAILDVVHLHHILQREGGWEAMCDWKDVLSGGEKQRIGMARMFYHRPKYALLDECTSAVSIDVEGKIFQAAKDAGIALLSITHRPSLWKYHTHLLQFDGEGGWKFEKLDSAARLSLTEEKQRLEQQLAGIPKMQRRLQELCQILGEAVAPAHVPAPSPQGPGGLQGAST

TRAFD1 (human) = TRAFD1 (human) (UniProt O14545); experiment: as above
ERP44 (human) = ERP44 (human) (UniProt Q9BS26); experiment: as above
NTPCR (human) = NTPCR (human) (UniProt Q9BSD7); experiment: as above
LDHA (human) = LDHA (human) (UniProt P00338); experiment: as above
H1FX (human) = H1FX (human) (UniProt Q92522); experiment: as above
ELOC (human) = ELOC (human) (UniProt Q15369); experiment: as above
Chain of ELOC (human) (Q15369 whole entry): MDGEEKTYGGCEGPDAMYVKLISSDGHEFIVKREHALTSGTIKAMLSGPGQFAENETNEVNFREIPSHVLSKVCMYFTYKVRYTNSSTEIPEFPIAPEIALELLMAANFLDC

ERP29 (human) = ERP29 (human) (UniProt P30040); experiment: as above
ACSL3 (human) = ACSL3 (human) (UniProt O95573); experiment: as above
AIFM1 (human) = AIFM1 (human) (UniProt O95831); experiment: as above
PSMA5 (human) = PSMA5 (human) (UniProt P28066); experiment: as above
Chain of PSMA5 (human) (P28066 whole entry): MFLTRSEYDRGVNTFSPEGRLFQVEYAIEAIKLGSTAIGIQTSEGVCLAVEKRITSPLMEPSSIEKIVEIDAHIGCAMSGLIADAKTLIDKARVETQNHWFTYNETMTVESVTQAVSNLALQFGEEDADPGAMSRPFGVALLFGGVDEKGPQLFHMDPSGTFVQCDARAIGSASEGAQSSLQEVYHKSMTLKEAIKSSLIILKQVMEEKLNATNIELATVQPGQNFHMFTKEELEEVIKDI

PSMB4 (human) = PSMB4 (human) (UniProt P28070); experiment: as above
PSMC2 (human) = PSMC2 (human) (UniProt P35998); experiment: as above
Chain of PSMC2 (human) (P35998 2-433 limits assumed): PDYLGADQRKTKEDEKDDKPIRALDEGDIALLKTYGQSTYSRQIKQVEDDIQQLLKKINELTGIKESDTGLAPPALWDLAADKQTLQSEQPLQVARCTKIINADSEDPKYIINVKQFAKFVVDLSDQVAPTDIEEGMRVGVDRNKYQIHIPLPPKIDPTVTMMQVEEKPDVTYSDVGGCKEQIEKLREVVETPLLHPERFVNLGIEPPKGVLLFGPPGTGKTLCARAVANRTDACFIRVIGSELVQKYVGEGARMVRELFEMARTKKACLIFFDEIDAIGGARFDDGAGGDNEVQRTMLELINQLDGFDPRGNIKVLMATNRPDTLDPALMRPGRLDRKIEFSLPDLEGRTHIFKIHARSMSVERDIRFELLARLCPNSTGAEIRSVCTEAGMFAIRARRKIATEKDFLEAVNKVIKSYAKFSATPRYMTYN

RPS27 (human) = RPS27 (human) (UniProt P42677); experiment: co-IP with anti-FLAG, mass spectrometry; lysate of cells with C-FLAG B3GNT2
RPL26 (human) = RPL26 (human) (UniProt P61254); experiment: as above
GANAB (human) = GANAB (human) (UniProt Q14697); experiment: as above
ARF4 (human) = ARF4 (human) (UniProt P18085); experiment: as above
Chain of ARF4 (human) (P18085 2-180 limits assumed): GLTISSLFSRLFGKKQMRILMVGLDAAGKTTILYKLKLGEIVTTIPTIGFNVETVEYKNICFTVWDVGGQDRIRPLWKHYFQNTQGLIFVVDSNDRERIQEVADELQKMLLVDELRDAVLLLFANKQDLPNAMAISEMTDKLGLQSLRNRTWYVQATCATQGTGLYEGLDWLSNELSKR

GALNT2 (human) = GALNT2 (human) (UniProt Q10471); experiment: as above
MSN (human) = MSN (human) (UniProt P26038); experiment: as above
HADHA (human) = HADHA (human) (UniProt P40939); experiment: as above
RPL32 (human) = RPL32 (human) (UniProt P62910); experiment: as above
RPL9 (human) = RPL9 (human) (UniProt P32969); experiment: as above
RARS (human) = RARS (human) (UniProt P54136); experiment: as above
RRP12 (human) = RRP12 (human) (UniProt Q5JTH9); experiment: as above
Chain of RRP12 (human) (Q5JTH9 other isoform, or with tags, fused parts or gaps limits assumed): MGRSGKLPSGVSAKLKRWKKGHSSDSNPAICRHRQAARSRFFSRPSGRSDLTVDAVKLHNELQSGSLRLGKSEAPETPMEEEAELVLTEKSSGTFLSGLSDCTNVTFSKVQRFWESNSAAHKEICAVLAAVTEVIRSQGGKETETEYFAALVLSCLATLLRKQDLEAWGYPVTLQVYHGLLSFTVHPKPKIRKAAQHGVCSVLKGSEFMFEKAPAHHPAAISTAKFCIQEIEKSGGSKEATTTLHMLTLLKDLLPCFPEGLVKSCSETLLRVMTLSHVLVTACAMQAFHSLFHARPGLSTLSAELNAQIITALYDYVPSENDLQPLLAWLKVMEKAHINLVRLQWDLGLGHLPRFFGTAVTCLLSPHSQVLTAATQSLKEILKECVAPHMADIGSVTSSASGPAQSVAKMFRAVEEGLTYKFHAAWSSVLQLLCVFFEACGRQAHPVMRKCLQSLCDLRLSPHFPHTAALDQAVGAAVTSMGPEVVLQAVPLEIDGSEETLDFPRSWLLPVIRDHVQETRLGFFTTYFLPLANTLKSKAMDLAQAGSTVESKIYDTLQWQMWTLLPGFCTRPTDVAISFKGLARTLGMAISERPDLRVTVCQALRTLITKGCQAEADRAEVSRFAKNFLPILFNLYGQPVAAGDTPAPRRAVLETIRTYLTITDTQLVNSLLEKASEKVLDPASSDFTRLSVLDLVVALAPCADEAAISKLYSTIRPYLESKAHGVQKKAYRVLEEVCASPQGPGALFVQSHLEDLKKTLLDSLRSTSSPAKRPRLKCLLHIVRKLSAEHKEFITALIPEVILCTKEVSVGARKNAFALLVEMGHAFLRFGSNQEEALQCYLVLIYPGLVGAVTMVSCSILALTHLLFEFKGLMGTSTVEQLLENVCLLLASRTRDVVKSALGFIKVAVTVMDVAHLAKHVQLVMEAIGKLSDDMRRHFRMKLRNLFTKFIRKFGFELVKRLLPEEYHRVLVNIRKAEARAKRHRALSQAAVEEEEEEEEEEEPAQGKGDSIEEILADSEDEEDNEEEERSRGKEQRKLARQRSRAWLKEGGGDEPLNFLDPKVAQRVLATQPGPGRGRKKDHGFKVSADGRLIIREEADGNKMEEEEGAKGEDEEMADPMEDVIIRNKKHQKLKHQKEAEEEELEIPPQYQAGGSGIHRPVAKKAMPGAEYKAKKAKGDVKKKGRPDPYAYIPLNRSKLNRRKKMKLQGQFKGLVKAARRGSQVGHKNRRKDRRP

DNAJB11 (human) = DNAJB11 (human) (UniProt Q9UBS4); experiment: as above
ARHGEF2 (human) = ARHGEF2 (human) (UniProt Q92974); experiment: as above
SPRR1A (human) = SPRR1A (human) (UniProt P35321); experiment: as above
STAU2 (human) = STAU2 (human) (UniProt Q9NUL3); experiment: as above
Chain of STAU2 (human) (Q9NUL3 whole entry): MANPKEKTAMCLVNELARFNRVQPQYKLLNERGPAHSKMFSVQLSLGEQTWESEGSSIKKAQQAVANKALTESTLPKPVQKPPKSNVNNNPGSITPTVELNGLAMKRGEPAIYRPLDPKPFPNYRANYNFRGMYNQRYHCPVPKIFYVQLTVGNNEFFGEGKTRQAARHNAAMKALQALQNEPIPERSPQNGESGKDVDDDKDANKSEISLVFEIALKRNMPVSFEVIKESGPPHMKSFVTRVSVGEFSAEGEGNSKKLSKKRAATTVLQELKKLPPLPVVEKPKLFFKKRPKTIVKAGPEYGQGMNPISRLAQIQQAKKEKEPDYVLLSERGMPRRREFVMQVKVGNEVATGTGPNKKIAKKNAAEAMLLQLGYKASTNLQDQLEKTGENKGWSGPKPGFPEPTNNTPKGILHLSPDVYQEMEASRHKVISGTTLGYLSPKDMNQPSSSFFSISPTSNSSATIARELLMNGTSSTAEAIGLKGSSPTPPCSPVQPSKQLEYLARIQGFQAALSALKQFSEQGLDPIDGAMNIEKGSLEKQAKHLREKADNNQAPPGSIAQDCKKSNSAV

RPS4X (human) = RPS4X (human) (UniProt P62701); experiment: as above

IgG control (Millipore Sigma 12-371) (antibody)
co-IP mass spectrometry count (DNAJA3 (human)): 0
co-IP mass spectrometry count (RPL34 (human)): 0
co-IP mass spectrometry count (EEF2 (human)): 0
co-IP mass spectrometry count (SFXN3 (human)): 0
co-IP mass spectrometry count (STAU1 (human)): 0
co-IP mass spectrometry count (RPS6 (human)): 2
co-IP mass spectrometry count (FBXO6 (human)): 0
co-IP mass spectrometry count (RPL15 (human)): 0
co-IP mass spectrometry count (KPNB1 (human)): 0
co-IP mass spectrometry count (ABCD1 (human)): 0
co-IP mass spectrometry count (TRAFD1 (human)): 0
co-IP mass spectrometry count (ERP44 (human)): 0
co-IP mass spectrometry count (NTPCR (human)): 0
co-IP mass spectrometry count (LDHA (human)): 0
co-IP mass spectrometry count (H1FX (human)): 0
co-IP mass spectrometry count (ELOC (human)): 0
co-IP mass spectrometry count (ERP29 (human)): 0
co-IP mass spectrometry count (ACSL3 (human)): 0
co-IP mass spectrometry count (AIFM1 (human)): 0
co-IP mass spectrometry count (PSMA5 (human)): 0
co-IP mass spectrometry count (PSMB4 (human)): 0
co-IP mass spectrometry count (PSMC2 (human)): 0

C-terminal FLAG tagged B3GNT2 (from UniProt Q9NY97 1-397) (enzyme)
co-IP mass spectrometry count (RPS27 (human)): 6
co-IP mass spectrometry count (RPL26 (human)): 12
co-IP mass spectrometry count (GANAB (human)): 8
co-IP mass spectrometry count (ARF4 (human)): 4
co-IP mass spectrometry count (GALNT2 (human)): 2
co-IP mass spectrometry count (MSN (human)): 4
co-IP mass spectrometry count (HADHA (human)): 2
co-IP mass spectrometry count (RPL32 (human)): 7
co-IP mass spectrometry count (RPL9 (human)): 7
co-IP mass spectrometry count (RARS (human)): 2
co-IP mass spectrometry count (RRP12 (human)): 2
co-IP mass spectrometry count (DNAJB11 (human)): 4
co-IP mass spectrometry count (ARHGEF2 (human)): 2
co-IP mass spectrometry count (SPRR1A (human)): 3
co-IP mass spectrometry count (STAU2 (human)): 2
co-IP mass spectrometry count (RPS4X (human)): 23
